Reference: the supplement of paper PMC7877785
± gives the uncertainty stated by the source.

Experiment: self-splicing fitness, log relative to wild type (ln ratio); higher = more splicing; Tetrahymena group I intron in knt gene, E. coli kanamycin selection, DiMSum; sequences stand for … in CUCUCU…GGAGGGAAAAGUUAUCAGGCAUGCACCUGGUAGCUAGUCUUUAAACCAAUAGAUUGCAUCGGUUUAAAAGGCAAGACCGUCAAAUUGCGGGAAAGGGGUCAACAGCCGUUCAGUACCAAGUCUCAGGGGAAACUUUGAGAUGGCCUUGCAAAGGGUAUGGUAAUAAGCUGACGGACAUGGUCCUAACCACGCAGCCAAGUCCUAAGUCAACAGAUCUUCUGUUGAUAUGGAUGCAGUUCACAGACUAAAUGUCGGUCGGGGAAGAUGUAUUCUUCUCAUAAGAUAUAGUCGGACCUCUCCUUAAUGGGAGCUAGCGGAUGAAGUGAUGCAACACUGGAGCCGCUGGGAACUAAUUUGUAUGCGAAAGUAUAUUGAUUAGUUUUGGAGUACUCGUGGUCG
Procedure, shortened: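 A randomised library covering all eight P1ex-region intron nucleotides was built with the intron in the knt kanamycin-resistance gene on pET-22b(+) and held in E. coli BL21(DE3). Cells were grown overnight at 37°C or 30°C on LB agar, with or without 25 μg/mL kanamycin, plus 100 μg/mL carbenicillin, 50 μM IPTG and 0.2% rhamnose, and pooled colonies were amplicon-sequenced on an Illumina HiSeq 2500. DiMSum fitness is the error-weighted combination of wild-type-normalised replicate fold changes, kanamycin versus none.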

Sequence | self-splicing fitness (ln) (30 °C) | self-splicing fitness (ln) (37 °C)
GAAUAGCAAUAUUACGUAAC | -0.941 ± 0.11 | -1.63 ± 0.12
CUAUAGCAAUAUUACGUCCA | -4.03 ± 0.36 | -3.13 ± 0.4
UGUCAGCAAUAUUACGGAAC | -3.82 ± 0.2 | -2.23 ± 0.3
CAAAAGCAAUAUUACGCUUG | -3.3 ± 0.15 | -2.35 ± 0.19
CGACAGCAAUAUUACGGUUU | -1.64 ± 0.058 | -0.714 ± 0.084
UAGUAGCAAUAUUACGUGGC | – | -2.59 ± 0.44
AAAGAGCAAUAUUACGGUCA | -1.91 ± 0.21 | -1.3 ± 0.17
UAGCAGCAAUAUUACGCCCC | -1.6 ± 0.23 | -1.56 ± 0.31
AAGCAGCAAUAUUACGGCGC | -0.59 ± 0.2 | -1.02 ± 0.19
GUUCAGCAAUAUUACGAAUC | -3.73 ± 0.24 | -2.29 ± 0.33
CAUGAGCAAUAUUACGCUUU | – | -3.02 ± 0.24
ACGUAGCAAUAUUACGACGG | -0.92 ± 0.11 | -0.526 ± 0.13
GGCAAGCAAUAUUACGAAAU | -0.0122 ± 0.15 | -0.727 ± 0.12
AGUUAGCAAUAUUACGUACU | -1.16 ± 0.13 | -0.298 ± 0.12
ACACAGCAAUAUUACGGAGU | -2.39 ± 0.087 | -2.01 ± 0.11
CCCCAGCAAUAUUACGCUGU | -4 ± 0.21 | -3.09 ± 0.18
AAGGAGCAAUAUUACGGCGA | -2.84 ± 0.32 | -0.936 ± 0.3
AGUAAGCAAUAUUACGUUAA | -2.91 ± 0.21 | -1.63 ± 0.18
GUCCAGCAAUAUUACGAUCC | -0.959 ± 0.087 | -0.16 ± 0.11
UAAGAGCAAUAUUACGGAGG | -3.41 ± 0.32 | -1.95 ± 0.46
CUCCAGCAAUAUUACGUCGC | -4.34 ± 0.23 | -2.96 ± 0.23
UCGGAGCAAUAUUACGGGCG | -1.37 ± 0.11 | -1.39 ± 0.18
CUGCAGCAAUAUUACGAAGU | -4.26 ± 0.34 | –
UAUAAGCAAUAUUACGCUAU | -3.91 ± 0.28 | -1.92 ± 0.18
CGUGAGCAAUAUUACGAGAU | -3.4 ± 0.26 | -1.57 ± 0.24

Sequence | self-splicing fitness (ln) (30 °C) | self-splicing fitness (ln) (37 °C)
CGUGAGCAAUAUUACGCGAC | -2.65 ± 0.35 | -2.21 ± 0.36
CGGUAGCAAUAUUACGGCAC | -2.11 ± 0.26 | -1.99 ± 0.36
AGUGAGCAAUAUUACGACAC | -2.16 ± 0.29 | -1.64 ± 0.17
AGGUAGCAAUAUUACGAUUC | -1.1 ± 0.015 | -0.359 ± 0.034
CCUUAGCAAUAUUACGUCUA | – | -2.65 ± 0.23
GGCCAGCAAUAUUACGUAGG | -2.19 ± 0.14 | -1.85 ± 0.18
UUUCAGCAAUAUUACGGUAC | -1.9 ± 0.41 | -2.1 ± 0.26
GACCAGCAAUAUUACGAGGG | -3.24 ± 0.2 | -2.57 ± 0.21
UACUAGCAAUAUUACGUACC | -2.24 ± 0.17 | -1.72 ± 0.23
GUGGAGCAAUAUUACGUCUA | -3.74 ± 0.47 | –
CGAUAGCAAUAUUACGACCG | -1.44 ± 0.21 | 0.156 ± 0.24
ACCAAGCAAUAUUACGAGGU | -3.76 ± 0.21 | -2.22 ± 0.18
UAUCAGCAAUAUUACGUCUG | -0.947 ± 0.076 | -0.205 ± 0.1
UGUCAGCAAUAUUACGUUCG | 0.194 ± 0.073 | 0.709 ± 0.1
CUGUAGCAAUAUUACGAGAU | -3.86 ± 0.16 | -2.21 ± 0.15
AUAGAGCAAUAUUACGCUCC | -0.896 ± 0.37 | -1.91 ± 0.41
UUCAAGCAAUAUUACGAGCA | -1.01 ± 0.1 | -0.0614 ± 0.12
UGAGAGCAAUAUUACGUAUU | -3.22 ± 0.34 | -1 ± 0.21
AACAAGCAAUAUUACGUGGA | -2.59 ± 0.11 | -1.51 ± 0.094
AAUAAGCAAUAUUACGACGA | -0.785 ± 0.11 | -0.362 ± 0.14
CUGCAGCAAUAUUACGAUAA | -3.39 ± 0.28 | -3.1 ± 0.28
ACCUAGCAAUAUUACGCUGC | -2.42 ± 0.12 | -1.06 ± 0.13
GGUCAGCAAUAUUACGCAUU | 0.00502 ± 0.059 | 0.0322 ± 0.069
AGCUAGCAAUAUUACGCGAG | -2.38 ± 0.22 | -3.12 ± 0.32
